Molecular target: T1, YFP-DAT, Q01959
T1 chain: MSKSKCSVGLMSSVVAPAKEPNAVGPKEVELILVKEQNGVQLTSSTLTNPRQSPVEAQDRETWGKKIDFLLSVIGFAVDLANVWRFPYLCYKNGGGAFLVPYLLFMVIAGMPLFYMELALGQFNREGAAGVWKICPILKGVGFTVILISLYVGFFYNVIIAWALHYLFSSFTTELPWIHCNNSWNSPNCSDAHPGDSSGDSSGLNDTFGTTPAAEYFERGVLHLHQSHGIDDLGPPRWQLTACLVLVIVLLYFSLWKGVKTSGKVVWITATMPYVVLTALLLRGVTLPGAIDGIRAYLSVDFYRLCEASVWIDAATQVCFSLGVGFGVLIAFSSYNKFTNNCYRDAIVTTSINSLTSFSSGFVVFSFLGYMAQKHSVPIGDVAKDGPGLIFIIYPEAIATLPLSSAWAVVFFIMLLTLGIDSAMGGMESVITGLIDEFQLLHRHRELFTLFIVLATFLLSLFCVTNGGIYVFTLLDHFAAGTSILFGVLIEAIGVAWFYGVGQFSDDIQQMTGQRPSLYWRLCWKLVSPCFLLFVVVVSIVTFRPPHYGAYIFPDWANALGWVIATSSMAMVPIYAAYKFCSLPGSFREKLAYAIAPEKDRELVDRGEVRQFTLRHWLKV
Assay: FRET or BRET; CFP- and YFP-labelled proteins co-expressed in HEK293 cells; three-filter method, 63x oil immersion objective; FRET efficiency, n = 20-30 per group
Settings: remark: other sources report otherwise

B1: CFP-Flot1, O75955 1-427 (natural protein)
chain: MFFTCGPNEAMVVSGFCRSPPVMVAGGRVFVLPCIQQIQRISLNTLTLNVKSEKVYTRHGVPISVTGIAQVKIQGQNKEMLAAACQMFLGKTEAEIAHIALETLEGHQRAIMAHMTVEEIYKDRQKFSEQVFKVASSDLVNMGISVVSYTLKDIHDDQDYLHSLGKARTAQVQKDARIGEAEAKRDAGIREAKAKQEKVSAQYLSEIEMAKAQRDYELKKAAYDIEVNTRRAQADLAYQLQVAKTKQQIEEQRVQVQVVERAQQVAVQEQEIARREKELEARVRKPAEAERYKLERLAEAEKSQLIMQAEAEAASVRMRGEAEAFAIGARARAEAEQMAKKAEAFQLYQEAAQLDMLLEKLPQVAEEISGPLTSANKITLVSSGSGTMGAAKVTGEVLDILTRLPESVERLTGVSISQVNHKPLRTA
FRET efficiency: 7.62
